The record followed here is the supplement of paper PMC10065799, “High-throughput profiling of sequence recognition by tyrosine kinases and SH2 domains using bacterial peptide display” (eLife, 2023).

The subject of one data set is AncSZ. The experiment in a line: phosphorylation enrichment, bacterial display (enrichment ratio); higher = better substrate or ligand; peptides without Tyr show the background.
The target of another data set is EPHB1 (UniProt P54762). Described as above.
Another data set concerns the target EPHB2 (UniProt P29323). Described as above.
A further data set has as its target FGFR1 (UniProt P11362). The data set is described as above.
In the next data set the target is FGFR3 (UniProt P22607). The description is as above.
The subject of another data set is Fer (mouse). The description is as above.
The target of a further data set is Fes (UniProt P07332). The data set is described as above.
Chain of Fes (P07332 whole entry, looked up): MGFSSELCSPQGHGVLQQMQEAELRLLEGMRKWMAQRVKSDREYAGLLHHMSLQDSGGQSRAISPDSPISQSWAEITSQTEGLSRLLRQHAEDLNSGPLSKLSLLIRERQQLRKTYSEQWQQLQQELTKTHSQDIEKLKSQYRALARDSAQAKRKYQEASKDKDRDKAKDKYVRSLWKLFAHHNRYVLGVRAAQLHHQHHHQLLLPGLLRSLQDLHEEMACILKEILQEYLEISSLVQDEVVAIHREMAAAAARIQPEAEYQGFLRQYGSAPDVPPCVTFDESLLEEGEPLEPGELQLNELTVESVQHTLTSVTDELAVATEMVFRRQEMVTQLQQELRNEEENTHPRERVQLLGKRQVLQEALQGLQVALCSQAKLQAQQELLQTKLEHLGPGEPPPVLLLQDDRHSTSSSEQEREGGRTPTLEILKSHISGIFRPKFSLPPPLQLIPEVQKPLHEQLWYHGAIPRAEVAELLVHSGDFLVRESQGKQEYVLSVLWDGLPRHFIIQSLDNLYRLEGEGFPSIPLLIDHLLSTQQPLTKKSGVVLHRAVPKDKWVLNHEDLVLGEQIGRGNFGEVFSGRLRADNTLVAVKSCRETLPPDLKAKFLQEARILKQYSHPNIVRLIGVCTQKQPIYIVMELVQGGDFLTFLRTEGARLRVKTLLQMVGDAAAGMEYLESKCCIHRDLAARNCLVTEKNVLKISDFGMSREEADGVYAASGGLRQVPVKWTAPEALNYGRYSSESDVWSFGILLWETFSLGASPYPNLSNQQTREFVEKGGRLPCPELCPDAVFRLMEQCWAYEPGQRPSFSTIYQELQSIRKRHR
The target in a further data set is Fyn (UniProt P06241). The data set is described as above.
Chain of Fyn (P06241 whole entry, looked up): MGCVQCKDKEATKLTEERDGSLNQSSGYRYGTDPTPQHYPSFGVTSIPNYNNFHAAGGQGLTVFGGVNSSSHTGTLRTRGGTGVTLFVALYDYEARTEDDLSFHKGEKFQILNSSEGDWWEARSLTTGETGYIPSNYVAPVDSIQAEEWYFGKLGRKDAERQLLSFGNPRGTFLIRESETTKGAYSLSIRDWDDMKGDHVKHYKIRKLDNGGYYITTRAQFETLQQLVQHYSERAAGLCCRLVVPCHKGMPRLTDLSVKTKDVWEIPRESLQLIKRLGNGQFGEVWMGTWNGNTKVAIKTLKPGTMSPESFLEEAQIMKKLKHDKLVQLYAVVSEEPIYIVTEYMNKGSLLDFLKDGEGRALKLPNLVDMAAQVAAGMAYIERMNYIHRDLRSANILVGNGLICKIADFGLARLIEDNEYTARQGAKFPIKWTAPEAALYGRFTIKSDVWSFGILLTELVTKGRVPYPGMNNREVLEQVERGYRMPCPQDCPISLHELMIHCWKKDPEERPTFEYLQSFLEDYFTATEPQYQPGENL
A further data set concerns the target Hck (UniProt P08631). The data set is described as above.
The target in another data set is Jak2 (UniProt O60674). The data set is described as above.
Chain of Jak2 (O60674 whole entry, looked up): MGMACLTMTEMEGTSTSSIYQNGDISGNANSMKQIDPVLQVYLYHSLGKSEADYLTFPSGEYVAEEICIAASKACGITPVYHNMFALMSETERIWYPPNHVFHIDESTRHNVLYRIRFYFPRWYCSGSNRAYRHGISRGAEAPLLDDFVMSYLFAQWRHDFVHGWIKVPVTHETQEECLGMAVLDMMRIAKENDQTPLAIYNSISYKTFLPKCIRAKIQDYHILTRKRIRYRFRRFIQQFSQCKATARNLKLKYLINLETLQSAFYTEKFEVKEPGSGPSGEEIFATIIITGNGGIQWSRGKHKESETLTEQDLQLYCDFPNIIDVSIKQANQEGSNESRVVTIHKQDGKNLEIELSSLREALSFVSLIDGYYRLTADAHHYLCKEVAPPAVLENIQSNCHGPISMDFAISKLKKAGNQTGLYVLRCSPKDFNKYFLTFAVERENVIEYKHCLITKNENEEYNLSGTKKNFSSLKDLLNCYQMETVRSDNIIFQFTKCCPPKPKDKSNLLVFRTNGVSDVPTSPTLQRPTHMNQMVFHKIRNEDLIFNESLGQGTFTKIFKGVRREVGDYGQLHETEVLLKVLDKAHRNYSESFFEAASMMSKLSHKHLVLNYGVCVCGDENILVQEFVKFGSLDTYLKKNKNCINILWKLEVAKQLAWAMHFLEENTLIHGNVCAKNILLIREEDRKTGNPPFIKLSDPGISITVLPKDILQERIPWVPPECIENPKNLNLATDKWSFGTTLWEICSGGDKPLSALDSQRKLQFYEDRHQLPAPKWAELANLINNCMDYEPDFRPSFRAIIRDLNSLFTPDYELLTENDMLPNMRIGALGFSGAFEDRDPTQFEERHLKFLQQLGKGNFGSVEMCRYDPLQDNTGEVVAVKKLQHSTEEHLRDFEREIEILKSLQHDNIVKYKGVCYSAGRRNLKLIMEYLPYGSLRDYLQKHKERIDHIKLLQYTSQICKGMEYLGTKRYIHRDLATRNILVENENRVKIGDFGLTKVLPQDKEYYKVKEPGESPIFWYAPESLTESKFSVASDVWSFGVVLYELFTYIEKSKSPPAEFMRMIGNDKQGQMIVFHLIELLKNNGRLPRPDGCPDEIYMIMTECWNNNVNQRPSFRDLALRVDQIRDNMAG
A further data set addresses MERTK (UniProt Q12866). The data set is described as above.
The subject of a further data set is c-Abl (mouse). The data set is described as above.
Another data set has as its system c-Src. The data set is described as above.
The target in another data set is Grb2 SH2 (UniProt P62993). The experiment in a line: SH2 binding enrichment of the phosphorylated peptide, bacterial display (enrichment ratio); higher = better substrate or ligand; peptides without Tyr show the background.
Chain of Grb2 SH2 (P62993 whole entry, looked up): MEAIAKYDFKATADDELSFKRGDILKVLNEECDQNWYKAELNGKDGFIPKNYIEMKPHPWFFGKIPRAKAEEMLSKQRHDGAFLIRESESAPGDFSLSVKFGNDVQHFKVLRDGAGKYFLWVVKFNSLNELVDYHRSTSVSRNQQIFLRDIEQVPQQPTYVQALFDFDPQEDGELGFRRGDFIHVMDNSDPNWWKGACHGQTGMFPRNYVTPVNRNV
The target in a further data set is SHP2-C SH2. The data set is described as above.
In another data set the target is c-Src SH2. Described as above.
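Throughout, for SH2 binding enrichment of the phosphorylated peptide, bacterial display: peptide library displayed on the E. coli surface as eCPX fusions, selected cells deep-sequenced, score is each peptide's frequency after selection divided by its frequency in the input.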
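Throughout, for phosphorylation enrichment, bacterial display: 11-residue human phosphosite peptides and single-mutation variants displayed on the E. coli surface, counted by deep sequencing, each peptide's frequency after selection divided by its frequency in the unselected input library; frequency after pTyr selection over input frequency; kinase dosed for 20-30% of maximal phosphorylation in three min.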

Chain of EPHB2 (P29323 whole entry, looked up): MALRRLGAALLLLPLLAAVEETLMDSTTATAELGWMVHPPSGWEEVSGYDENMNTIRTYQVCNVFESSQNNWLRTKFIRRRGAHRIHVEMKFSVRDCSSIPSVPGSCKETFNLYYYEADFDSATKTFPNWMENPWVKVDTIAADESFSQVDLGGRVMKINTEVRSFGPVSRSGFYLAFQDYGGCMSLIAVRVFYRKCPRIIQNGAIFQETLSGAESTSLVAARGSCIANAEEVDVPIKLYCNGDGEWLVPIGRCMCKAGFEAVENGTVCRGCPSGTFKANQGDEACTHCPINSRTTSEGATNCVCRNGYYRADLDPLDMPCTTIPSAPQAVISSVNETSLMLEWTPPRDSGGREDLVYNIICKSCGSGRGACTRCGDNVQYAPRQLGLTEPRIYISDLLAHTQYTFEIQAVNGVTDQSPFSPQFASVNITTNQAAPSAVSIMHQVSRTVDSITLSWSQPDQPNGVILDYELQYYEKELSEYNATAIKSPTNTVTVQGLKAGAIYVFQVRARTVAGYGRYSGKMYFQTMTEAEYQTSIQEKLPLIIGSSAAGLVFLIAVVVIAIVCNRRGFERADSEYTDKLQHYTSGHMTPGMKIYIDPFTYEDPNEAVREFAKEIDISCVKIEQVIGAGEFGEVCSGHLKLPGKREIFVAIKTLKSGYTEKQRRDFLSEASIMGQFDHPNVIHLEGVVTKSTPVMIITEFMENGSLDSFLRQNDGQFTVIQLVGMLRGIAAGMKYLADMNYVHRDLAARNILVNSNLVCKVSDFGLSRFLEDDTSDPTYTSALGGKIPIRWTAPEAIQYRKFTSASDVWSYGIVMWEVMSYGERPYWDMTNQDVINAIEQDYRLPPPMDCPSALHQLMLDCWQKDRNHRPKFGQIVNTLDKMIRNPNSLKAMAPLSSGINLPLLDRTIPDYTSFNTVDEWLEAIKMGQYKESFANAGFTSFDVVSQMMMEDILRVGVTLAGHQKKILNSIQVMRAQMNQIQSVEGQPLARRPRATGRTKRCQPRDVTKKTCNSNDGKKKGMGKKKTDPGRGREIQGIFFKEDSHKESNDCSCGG
Chain of MERTK (Q12866 whole entry, looked up): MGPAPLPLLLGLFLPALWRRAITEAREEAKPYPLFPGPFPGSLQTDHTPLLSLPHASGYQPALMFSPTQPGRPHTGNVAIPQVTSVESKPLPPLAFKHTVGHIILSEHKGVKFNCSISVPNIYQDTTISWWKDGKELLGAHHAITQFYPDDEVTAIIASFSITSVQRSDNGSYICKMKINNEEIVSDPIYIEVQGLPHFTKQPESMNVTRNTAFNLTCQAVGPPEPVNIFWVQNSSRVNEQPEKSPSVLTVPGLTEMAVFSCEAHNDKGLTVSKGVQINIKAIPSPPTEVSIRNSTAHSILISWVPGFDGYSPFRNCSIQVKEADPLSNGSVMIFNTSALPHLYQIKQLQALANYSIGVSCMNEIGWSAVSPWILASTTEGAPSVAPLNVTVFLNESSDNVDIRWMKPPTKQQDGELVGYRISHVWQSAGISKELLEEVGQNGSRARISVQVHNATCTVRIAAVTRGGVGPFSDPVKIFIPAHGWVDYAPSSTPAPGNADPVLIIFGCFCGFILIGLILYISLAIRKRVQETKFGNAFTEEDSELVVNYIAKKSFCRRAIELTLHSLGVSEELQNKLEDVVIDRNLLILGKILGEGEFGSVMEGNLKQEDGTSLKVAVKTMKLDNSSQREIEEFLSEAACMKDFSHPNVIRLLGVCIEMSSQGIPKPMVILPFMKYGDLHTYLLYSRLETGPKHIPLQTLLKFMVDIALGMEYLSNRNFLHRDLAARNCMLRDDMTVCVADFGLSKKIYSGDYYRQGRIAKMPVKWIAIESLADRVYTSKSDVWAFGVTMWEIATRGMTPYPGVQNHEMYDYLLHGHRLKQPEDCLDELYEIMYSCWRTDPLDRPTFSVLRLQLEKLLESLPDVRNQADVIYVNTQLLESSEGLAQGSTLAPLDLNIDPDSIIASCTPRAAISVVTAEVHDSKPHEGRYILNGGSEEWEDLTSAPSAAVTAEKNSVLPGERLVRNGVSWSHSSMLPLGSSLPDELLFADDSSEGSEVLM

Turning to INPIIYAFVVE [CCR5_Y297_G301V], the phosphorylation enrichment in the data set on AncSZ was 1.25; with EPHB1, 4.53; with EPHB2, 3.82; with FGFR1, 1; in the data set with FGFR3 it was 1.29; with Fer (mouse) it was 2.66. Also, the phosphorylation enrichment with Fes was 1.5; with Fyn it was 2.42; with Hck, 1.78; with Jak2 it was 1.2; in the data set with MERTK it was 4.13; with c-Abl (mouse) it was 2.37. Besides, the phosphorylation enrichment with c-Src worked out at 2.59. The SH2 binding enrichment with Grb2 SH2 stood at 0.912; in the data set with SHP2-C SH2, 0.73; with c-Src SH2, 0.402.

IPGRYYETGSI [PAX2_Y73_L69P]: the phosphorylation enrichment worked out at 0.505 in the data set with AncSZ; 0.451 in the data set with EPHB1; 0.595 in the data set with EPHB2; 0.492 with FGFR1; 0.498 in the data set with FGFR3; 0.331 with Fer (mouse). Moreover, the phosphorylation enrichment with Fes stood at 0.646; with Fyn it was 0.454; with Hck, 0.428; with Jak2, 0.573; in the data set with MERTK, 0.405; with c-Abl (mouse), 0.616. For the same sequence, the phosphorylation enrichment in the data set with c-Src worked out at 0.437. The SH2 binding enrichment with Grb2 SH2 turned out to be 0.777; with SHP2-C SH2, 0.743; in the data set with c-Src SH2 it was 1.67.

In the case of IRGNMYYENSY [EGFR_Y112], the phosphorylation enrichment in the data set with AncSZ stood at 0.761; with EPHB1, 0.486; with EPHB2, 0.594; with FGFR1 it was 0.58; with FGFR3, 0.665; with Fer (mouse), 0.535. Moreover, the phosphorylation enrichment stood at 0.733 in the data set with Fes; 0.468 with Fyn; 0.603 with Hck; 0.55 in the data set with Jak2; 1.06 in the data set with MERTK; 0.449 with c-Abl (mouse). In the data set with c-Src, the phosphorylation enrichment came to 0.526. Besides, the SH2 binding enrichment came to 4.75 with Grb2 SH2, 0.897 with SHP2-C SH2 and 4.19 in the data set with c-Src SH2.

For the sequence IRKDLYANNVL [ACTA2_Y296], the phosphorylation enrichment came out at 0.527 in the data set on AncSZ; 0.38 in the data set with EPHB1; 0.46 with EPHB2; 0.421 in the data set with FGFR1; 0.564 with FGFR3; 0.422 with Fer (mouse). The phosphorylation enrichment with Fes was found to be 0.59; with Fyn, 0.413; with Hck, 0.45; with Jak2 it was 0.54; in the data set with MERTK, 0.476; with c-Abl (mouse), 0.581. The phosphorylation enrichment in the data set on c-Src came to 0.429. For the same sequence, the SH2 binding enrichment in the data set with Grb2 SH2 worked out at 1.23; with SHP2-C SH2, 0.614; with c-Src SH2 it was 0.569.

As for IRTIDYRYTVS [IDS_Y497_W502S], the phosphorylation enrichment came out at 0.789 in the data set with AncSZ; 0.437 in the data set with EPHB1; 0.666 in the data set with EPHB2; 0.593 with FGFR1; 0.601 in the data set with FGFR3; 0.45 in the data set on Fer (mouse). Moreover, the phosphorylation enrichment with Fes was found to be 1.13; in the data set with Fyn, 0.558; with Hck, 0.532; with Jak2, 0.713; with MERTK it was 0.411; in the data set with c-Abl (mouse) it was 0.46. For the same sequence, the phosphorylation enrichment with c-Src was 0.385. Besides, the SH2 binding enrichment with Grb2 SH2 turned out to be 0.73; with SHP2-C SH2, 0.823; with c-Src SH2, 0.69.

ISSLRYKLLEE [TRPC6_Y896_E897K]: the phosphorylation enrichment stood at 0.786 in the data set with AncSZ; 0.514 in the data set with EPHB1; 0.476 with EPHB2; 0.426 with FGFR1; 0.549 with FGFR3; 0.38 in the data set with Fer (mouse). For the same sequence, the phosphorylation enrichment with Fes was found to be 0.986; with Fyn, 0.503; with Hck, 0.47; in the data set with Jak2, 0.64; with MERTK, 0.347; in the data set on c-Abl (mouse), 0.603. Besides, in the data set on c-Src, the phosphorylation enrichment was found to be 0.407. Besides, the SH2 binding enrichment is 0.742 with Grb2 SH2, 0.65 with SHP2-C SH2 and 0.513 with c-Src SH2.

In the case of IVAEFYDNLPH [DEGS1_Y284_A280V_YF], the phosphorylation enrichment in the data set on AncSZ came out at 0.929; in the data set with EPHB1, 0.517; with EPHB2 it was 0.556; with FGFR1, 0.477; in the data set with FGFR3, 0.624; in the data set with Fer (mouse) it was 0.978. The phosphorylation enrichment in the data set with Fes was 0.891; with Fyn, 0.549; in the data set with Hck it was 3.36; in the data set with Jak2, 0.792; in the data set with MERTK it was 0.853; in the data set on c-Abl (mouse), 0.694. Moreover, the phosphorylation enrichment with c-Src amounted to 0.733. For the same sequence, the SH2 binding enrichment in the data set with Grb2 SH2 stood at 0.727; in the data set with SHP2-C SH2 it was 0.695; with c-Src SH2, 0.931.

Consider IVAEYYDNLPH [DEGS1_Y284_A280V], for which the phosphorylation enrichment in the data set with AncSZ was found to be 1.9; in the data set with EPHB1, 1.09; in the data set with EPHB2, 0.924; in the data set with FGFR1, 9.37; with FGFR3, 6.4; in the data set on Fer (mouse) it was 1.37. In addition, the phosphorylation enrichment with Fes was 1.38; with Fyn, 0.682; in the data set with Hck, 3.07; with Jak2, 1.53; with MERTK, 1.51; in the data set with c-Abl (mouse), 1.25. Further, the phosphorylation enrichment in the data set on c-Src was 0.958. Further, the figures for the SH2 binding enrichment with Grb2 SH2, in the data set with SHP2-C SH2 and with c-Src SH2 were 0.934, 0.574 and 1.5, respectively.
